Results from article PMC9510068.

Biological target: Bac S-2P (S-2P from the baculovirus-insect cell expression system, TN-5B1-4 cells) (SARS-CoV-2)
Experiment: negative-stain EM

## Bac S-2P (S-2P from the baculovirus-insect cell expression system, TN-5B1-4 cells) (domain or fragment)
  stoichiometry N: 3
